{"source": "patent US20130302347A1", "about": "(Genentech, published 2013)", "key": {"[1]": {"target": "T1, mTMEM149-Fc (mouse TMEM149 extracellular domain with C-terminal human IgG1 Fc) (mouse; human, UniProt Q3U4N7 21-163)", "T1 construct": "Only the predicted extracellular domain, without the transmembrane domain, was used; the signal peptide is residues 1-22; not shown: human IgG1 Fc, C-terminal", "T1 sequence": "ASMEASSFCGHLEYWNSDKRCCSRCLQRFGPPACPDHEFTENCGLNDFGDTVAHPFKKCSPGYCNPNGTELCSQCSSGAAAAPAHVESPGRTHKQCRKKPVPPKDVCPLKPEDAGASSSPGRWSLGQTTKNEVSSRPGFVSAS", "experiment": "SPR, mTMEM149-Fc captured on the chip", "protocol": "(§1) Surface plasmon resonance (SPR) was run on a BiaCore 3000 (GE healthcare, Piscataway, N.J.) at 25° C. using anti-human IgG F(ab′)₂ (Jackson Immunoresearch, West Grove, Pa.) amine-coupled to BiaCore CM5 sensor chips. For kinetic analysis of protein interactions, Fc-fusion proteins at 25 μg/ml were first captured onto sensor chips by injecting them for 3 min at 5 μl/min. Then, test proteins diluted to their indicated concentrations in HBS-P buffer (0.01 M Hepes, pH 7.4 0.15 M NaCl 0.005% Surfactant P20) were injected for 3 min at 30 μl/min. Dissociation in HBS-P buffer alone was then measured at a flow rate of […]. Sensor chips surfaces were regenerated by injecting 10 mM glycine pH 1.5 for 30 s after each cycle. Kinetic parameters were determined by fitting the data to a 1:1 Langmuir model using the Biacore 3000 evaluation software (GE Healthcare)."}, "[2]": {"target": "T2, nerve growth factor receptor (NGFR) on transfected 293T cells (UniProt P08138 29-427, limits assumed)", "T2 construct": "whole, on cells", "T2 sequence (looked up)": "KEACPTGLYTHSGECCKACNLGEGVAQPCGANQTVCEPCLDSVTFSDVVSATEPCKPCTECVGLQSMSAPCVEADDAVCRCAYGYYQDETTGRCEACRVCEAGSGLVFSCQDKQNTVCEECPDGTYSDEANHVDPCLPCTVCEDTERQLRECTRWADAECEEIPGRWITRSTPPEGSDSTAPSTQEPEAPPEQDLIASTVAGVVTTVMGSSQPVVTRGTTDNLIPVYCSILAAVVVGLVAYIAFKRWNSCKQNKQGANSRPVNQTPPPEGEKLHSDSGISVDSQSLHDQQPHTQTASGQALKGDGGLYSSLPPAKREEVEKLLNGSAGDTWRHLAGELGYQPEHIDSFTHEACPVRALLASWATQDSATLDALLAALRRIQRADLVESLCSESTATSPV", "experiment": "flow cytometry of transfected 293T cells, FLAG-mIGFL detected with fluorescent anti-FLAG"}, "[3]": {"target": "T3, DR4 on transfected 293T cells (UniProt O00220 24-468, limits assumed)", "T3 construct": "whole, on cells", "T3 sequence (looked up)": "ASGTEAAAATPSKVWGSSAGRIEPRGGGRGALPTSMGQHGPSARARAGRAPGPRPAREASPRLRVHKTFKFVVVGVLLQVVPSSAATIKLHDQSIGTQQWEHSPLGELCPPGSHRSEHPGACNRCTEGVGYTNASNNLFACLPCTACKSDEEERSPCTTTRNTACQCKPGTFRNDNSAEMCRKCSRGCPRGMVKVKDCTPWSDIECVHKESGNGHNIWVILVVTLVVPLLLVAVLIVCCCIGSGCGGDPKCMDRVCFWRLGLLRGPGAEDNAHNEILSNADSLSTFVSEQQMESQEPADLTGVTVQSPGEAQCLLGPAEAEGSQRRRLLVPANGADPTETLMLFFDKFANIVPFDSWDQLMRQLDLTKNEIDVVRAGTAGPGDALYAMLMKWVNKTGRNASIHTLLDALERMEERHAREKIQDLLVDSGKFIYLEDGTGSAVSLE", "experiment": "flow cytometry of transfected 293T cells, FLAG-mIGFL detected with fluorescent anti-FLAG"}, "[4]": {"target": "T4, Mouse TMEM149 on the cell surface (transfected 293T cells; mouse T cells) (mouse, UniProt Q3U4N7 23-345)", "T4 construct": "also called mTMEM149; murine TMEM149", "T4 sequence": "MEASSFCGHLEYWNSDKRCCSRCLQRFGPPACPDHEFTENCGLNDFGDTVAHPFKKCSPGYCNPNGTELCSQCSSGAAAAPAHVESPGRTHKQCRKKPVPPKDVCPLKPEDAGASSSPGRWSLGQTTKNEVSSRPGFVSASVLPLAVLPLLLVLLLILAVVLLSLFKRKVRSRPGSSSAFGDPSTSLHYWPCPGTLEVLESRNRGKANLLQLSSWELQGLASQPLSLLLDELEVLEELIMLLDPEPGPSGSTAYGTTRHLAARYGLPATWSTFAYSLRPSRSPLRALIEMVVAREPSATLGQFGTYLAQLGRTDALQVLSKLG", "experiment": "radioligand competition assay; 125I-FLAG-mIGFL against unlabelled ligand on 293T cells expressing mouse TMEM149", "protocol": "(§2) Reference is made to Example 11.\n(§3) To determine the affinity of IGFL with TMEM149, ligands were iodinated with ¹²⁵I using the lactoperoxidase method and free ¹²⁵I-Na was removed from the labeled protein by gel filtration using a NAP-5 column. 50 μL competition reaction mixtures containing a fixed concentration of iodinated ligand and decreasing concentrations of serially diluted, unlabeled ligand were placed into 96-well plates in triplicate. To each well, HEK293T cells stably expressing human or mouse TMEM149 were added at a density of 100,000 cells in 0.2 mL of binding buffer (Dulbecco's Modified Eagle Medium with 1% bovine serum albumin, 50 mM HEPES pH 7.2 and 2 mM sodium azide). The final concentration of the iodinated ligand with cells in each competition reaction was 100 pM (100,000 cpms per 0.25 mL). The final concentration of the unlabeled ligand with cells in the competition reaction varied, starting at 500 nM and then decreasing by […] dilution for ten concentrations, and included a zero-added, buffer-only sample. […] The filters were counted on a Wallac Wizard 1470 gamma counter (PerkinElmer Life and Analytical Sciences Inc.; Wellesley, Mass.). The binding data was evaluated using NewLigand software (Genentech), which uses the fitting algorithm of Munson and Robard to determine the binding affinity of the antibody (Munson, P. J., and D. Rodbard. 1980."}, "[5]": {"target": "T4, Mouse TMEM149 on the cell surface …", "experiment": "radioligand competition: 125I-FLAG-mIGFL (100 pM) on 293T cells expressing murine TMEM149, unlabelled FLAG-mIGFL varied", "protocol": "as §2, §3"}, "EDA-A1": {"target": "T5, EDA-A1 (UniProt Q92838 245-391, limits assumed)", "T5 sequence (looked up)": "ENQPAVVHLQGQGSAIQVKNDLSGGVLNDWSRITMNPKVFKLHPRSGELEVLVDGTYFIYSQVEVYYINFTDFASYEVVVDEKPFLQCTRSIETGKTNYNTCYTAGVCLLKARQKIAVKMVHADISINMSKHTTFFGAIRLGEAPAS", "experiment": "SPR screen of TNF-like ligands", "protocol": "as §1"}, "FasL": {"target": "T6, FasL (UniProt P48023 134-281)", "T6 sequence (looked up)": "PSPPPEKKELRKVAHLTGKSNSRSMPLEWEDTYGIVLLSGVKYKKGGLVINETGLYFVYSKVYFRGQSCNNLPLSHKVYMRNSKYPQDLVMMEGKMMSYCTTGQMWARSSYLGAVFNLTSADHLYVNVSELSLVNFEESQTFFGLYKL", "experiment": "SPR screen of TNF-like ligands", "protocol": "as §1"}, "4-1 BBL": {"target": "4-1 BBL (UniProt P41273 71-254, limits assumed)", "sequence (P41273 71-254 limits assumed)": "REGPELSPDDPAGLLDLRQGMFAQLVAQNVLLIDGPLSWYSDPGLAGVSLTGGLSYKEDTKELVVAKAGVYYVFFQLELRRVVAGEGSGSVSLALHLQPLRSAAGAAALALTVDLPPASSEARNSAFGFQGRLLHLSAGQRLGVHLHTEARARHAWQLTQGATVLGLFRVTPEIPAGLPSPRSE", "experiment": "SPR screen of TNF-like ligands", "protocol": "as §1"}, "CD30L": {"target": "T7, CD30L (UniProt P32971 63-234)", "T7 sequence (looked up)": "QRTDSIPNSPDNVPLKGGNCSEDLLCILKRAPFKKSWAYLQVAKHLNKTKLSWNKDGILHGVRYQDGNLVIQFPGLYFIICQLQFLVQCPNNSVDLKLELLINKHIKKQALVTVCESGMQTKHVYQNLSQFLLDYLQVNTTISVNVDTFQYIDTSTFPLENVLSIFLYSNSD", "experiment": "SPR screen of TNF-like ligands", "protocol": "as §1"}, "RANKL": {"target": "T8, RANKL (UniProt O14788 140-317, limits assumed)", "T8 sequence (looked up)": "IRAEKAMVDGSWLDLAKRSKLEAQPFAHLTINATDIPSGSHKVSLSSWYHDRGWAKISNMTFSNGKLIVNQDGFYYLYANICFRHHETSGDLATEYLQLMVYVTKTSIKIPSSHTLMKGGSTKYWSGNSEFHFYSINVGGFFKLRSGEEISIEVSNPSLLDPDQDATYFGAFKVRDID", "experiment": "SPR screen of TNF-like ligands", "protocol": "as §1"}, "TNFα": {"target": "TNFα (UniProt P01375 77-233)", "sequence (P01375 77-233 limits assumed)": "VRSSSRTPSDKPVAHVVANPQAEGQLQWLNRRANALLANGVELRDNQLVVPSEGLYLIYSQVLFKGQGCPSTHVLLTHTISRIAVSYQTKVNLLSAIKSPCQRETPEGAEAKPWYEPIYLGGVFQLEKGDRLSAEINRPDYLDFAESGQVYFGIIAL", "experiment": "SPR screen of TNF-like ligands", "protocol": "as §1"}, "APRIL": {"target": "T9, APRIL (UniProt O75888 105-250, limits assumed)", "T9 sequence (looked up)": "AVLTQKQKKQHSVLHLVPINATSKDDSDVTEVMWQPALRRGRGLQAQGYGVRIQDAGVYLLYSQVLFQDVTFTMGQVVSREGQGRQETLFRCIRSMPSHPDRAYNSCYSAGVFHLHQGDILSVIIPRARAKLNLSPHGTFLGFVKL", "experiment": "SPR screen of TNF-like ligands", "protocol": "as §1"}, "LTα": {"target": "T10, LTα (UniProt P01374 35-205)", "T10 sequence (looked up)": "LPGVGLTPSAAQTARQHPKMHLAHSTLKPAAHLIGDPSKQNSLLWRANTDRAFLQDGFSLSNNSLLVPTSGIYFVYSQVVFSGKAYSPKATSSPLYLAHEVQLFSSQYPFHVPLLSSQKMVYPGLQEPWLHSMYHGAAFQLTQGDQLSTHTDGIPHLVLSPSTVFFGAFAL", "experiment": "SPR screen of TNF-like ligands", "protocol": "as §1"}, "TL1A": {"target": "T11, TL1A (UniProt O95150 72-251)", "T11 sequence (looked up)": "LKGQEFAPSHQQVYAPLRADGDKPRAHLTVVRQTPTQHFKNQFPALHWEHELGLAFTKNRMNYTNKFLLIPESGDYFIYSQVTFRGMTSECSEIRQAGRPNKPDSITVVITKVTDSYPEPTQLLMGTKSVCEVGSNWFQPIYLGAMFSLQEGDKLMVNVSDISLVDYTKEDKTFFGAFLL", "experiment": "SPR screen of TNF-like ligands", "protocol": "as §1"}, "TNFSF14": {"target": "TNFSF14 (UniProt O43557 74-240, limits assumed)", "sequence (O43557 74-240 limits assumed)": "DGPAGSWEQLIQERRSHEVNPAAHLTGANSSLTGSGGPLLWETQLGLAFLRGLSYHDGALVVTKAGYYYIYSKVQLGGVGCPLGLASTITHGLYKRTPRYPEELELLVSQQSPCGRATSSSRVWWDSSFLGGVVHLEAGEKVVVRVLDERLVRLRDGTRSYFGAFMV", "experiment": "SPR screen of TNF-like ligands", "protocol": "as §1"}, "TRAIL": {"target": "TRAIL (UniProt P50591 114-281)", "sequence (P50591 114-281 limits assumed)": "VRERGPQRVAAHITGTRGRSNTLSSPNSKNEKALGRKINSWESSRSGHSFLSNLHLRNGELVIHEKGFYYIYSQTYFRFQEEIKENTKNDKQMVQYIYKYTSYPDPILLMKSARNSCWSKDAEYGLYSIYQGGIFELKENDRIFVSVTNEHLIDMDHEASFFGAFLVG", "experiment": "SPR screen of TNF-like ligands", "protocol": "as §1"}, "BAFF": {"target": "BAFF (UniProt Q9Y275 134-285, limits assumed)", "sequence (Q9Y275 134-285 limits assumed)": "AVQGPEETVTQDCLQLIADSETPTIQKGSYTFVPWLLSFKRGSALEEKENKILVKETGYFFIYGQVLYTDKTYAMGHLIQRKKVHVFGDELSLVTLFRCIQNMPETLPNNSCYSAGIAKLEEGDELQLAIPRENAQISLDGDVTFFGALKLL", "experiment": "SPR screen of TNF-like ligands", "protocol": "as §1"}, "CD27L": {"target": "T12, CD27L (UniProt P32970 39-193, limits assumed)", "T12 sequence (looked up)": "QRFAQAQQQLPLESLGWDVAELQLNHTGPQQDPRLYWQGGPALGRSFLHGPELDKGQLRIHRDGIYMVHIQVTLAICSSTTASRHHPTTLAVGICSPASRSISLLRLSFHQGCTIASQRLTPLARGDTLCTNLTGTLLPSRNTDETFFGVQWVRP", "experiment": "SPR screen of TNF-like ligands", "protocol": "as §1"}}}
{"binder": "FLAG-mIGFL (recombinant mouse IGFL with N-terminal FLAG epitope tag) (ligand, not shown: small tags and cut ends, also called mIGFL-FLAG; mIGFL1) RKISTFSGPGSWPCNPKCDGRTYNPSEECCVHDTILPFKRINLCGPSCTYRPCFELCCPESYSPKKKFIVKLKVHGERSHCSSSPISRNCKSNKIFHGEDIEDNQLSLRKKSGDQP", "values": [{"measurement": "Kd", "setting": "[1]", "value": 0.15, "unit": "nM"}, {"measurement": "binding result", "setting": "[2]", "value": "no binding"}, {"measurement": "binding result", "setting": "[3]", "value": "no binding"}, {"measurement": "Kd", "setting": "[4]", "value": 0.73, "unit": "nM"}, {"measurement": "IC50 (read off the curve)", "setting": "[5]", "value": "~0.8", "unit": "nM"}]}
{"binder": "TMEM149-Fc (human TMEM149 extracellular domain with C-terminal human IgG1 Fc) (Fc fusion, also called recombinant human TMEM149-Fc; Fc-TMEM149; not shown: human IgG1 Fc, C-terminal) SQYCGRLEYWNPDNKCCSSCLQRFGPPPCPDYEFRENCGLNDHGDFVTPPFRKCSSGQCNPDGAELCSPCGGGAVTPTPAAGGGRTPWRCRERPVPAKGHCPLTPGNPGAPSSQERSSPASSIAWRTPEPVPQQAWPN", "values": [{"measurement": "binding result", "setting": "EDA-A1", "value": "no binding"}, {"measurement": "binding result", "setting": "FasL", "value": "no binding"}, {"measurement": "binding result", "setting": "4-1 BBL", "value": "no binding"}, {"measurement": "binding result", "setting": "CD30L", "value": "no binding"}, {"measurement": "binding result", "setting": "RANKL", "value": "no binding"}, {"measurement": "binding result", "setting": "TNFα", "value": "no binding"}, {"measurement": "binding result", "setting": "APRIL", "value": "no binding"}, {"measurement": "binding result", "setting": "LTα", "value": "no binding"}, {"measurement": "binding result", "setting": "TL1A", "value": "no binding"}, {"measurement": "binding result", "setting": "TNFSF14", "value": "no binding"}, {"measurement": "binding result", "setting": "TRAIL", "value": "no binding"}, {"measurement": "binding result", "setting": "BAFF", "value": "no binding"}, {"measurement": "binding result", "setting": "CD27L", "value": "no binding"}]}
